How the values were obtained:
Cys32 = Cys32 (UniProt position 33, FWAEWCGPCKM); settings: reduced active-site thiol(s) implied, not stated; cited from earlier work
Cys29 [1] = target: Cys29 (UniProt position 29, FWATWCGTSKM); settings: reduced active-site thiol(s) implied, not stated; cited from earlier work
Cys89 = Cys89 (UniProt position 89, DADNNCPILPP); experiment: UV-vis; settings: poly buffer: 1 mM EDTA, 10 mM Na-borate, 10 mM Na-phosphate, 10 mM Na-citrate, 10 mM CAPS (starting pH 11.4), titrated by stepwise addition of 100 mM HCl; reduced (DTT-treated, DTT removed), free protein
Cys29 [2] = target: Cys29 (UniProt position 29, FWATWCGPCKM); settings: reduced active-site thiol(s) implied, not stated; cited from earlier work
Cys10 = Cys10 (UniProt position 10, TIYFICTGNSA); experiment: UV-vis; settings: poly buffer: 1 mM EDTA, 10 mM Na-borate, 10 mM Na-phosphate, 10 mM Na-citrate (starting pH 8), titrated by stepwise addition of 100 mM HCl; oxidized with arsenate (Cys82-Cys89 disulfide), Cys10 free thiol

For “Thioredoxin 1 (Ec_Trx1) (Escherichia coli)”, the pKa (Cys32) is given as 7.1.

In the case of “Thioredoxin (Sa_Trx, Trx1) P31T/C32S (Staphylococcus aureus; P31T;C32S)”, the pKa (Cys29 [1]) is listed as 6.4.

In the case of “Arsenate reductase ArsC (plasmid pI258), C10S/C15A/C82A triple mutant (Sa_ArsC^Trip) (Staphylococcus aureus; C10S;C15A;C82A)”, the pKa (Cys89) is reported as 9.5.

For “Thioredoxin (Sa_Trx), wild type (Staphylococcus aureus)”, the pKa (Cys29 [2]) is given as 7.1.

In the case of “Arsenate reductase ArsC (plasmid pI258), C15A, oxidized form (Staphylococcus aureus; C15A)”, the pKa (Cys10) is reported as 6.8.
